Data on eight molecules can be found in US20230115257A1 (published 2023).

A word on the EC50: it is the concentration at which the effect is half-maximal.

To fix the notation:
B1: 4-A22-A (antibody, V domains shown)
VH: EVQLQQSGPELVKPGASVKMSCKASGYTFTSYVMHWVKQKPGQGLEWIGYINPYNDGTEYNEKFKGKATLTSDKSSSTAYMELSSLTSEDSAVYYCAREAYRYFDVWGTGTTVTVSS
VL: DIQMTQSPASLSVSVGETVTITCRASENIYSNLAWYQQKQGKSPQLLVYAATNLAEGVPSRFSGSGSGTQYSLKINSLQSEDFGSYYCQHFWGTPWTFGGGTKLEIK
B2: 9-M12-A (antibody, V domains shown)
VH: EVQLVESGGDLVKPGGSLKLSCTASGFTFSSYGMSWVRQTPDKRLEWVTTISSGGGYTYVPDSVKGRFTISRDNAKNTLYLHMSSLKSEDTAMYFCARPLIPTMVEAFDYWGQGTSLTVSS
VL: SIVMTQTPKFLPVSAGDRVTMTCKASQSVGNNVAWYQQKPGQSPKLLIYYASNRYTGVPDRFTGSGSGADFTFTISSVQVEDLAVYFCQQHYSSPFTFGTGTKLEIK
B3: 6-C19-A (antibody, V domains shown)
VH: QIQLVQSGPELKKPGETVKISCKASGNTFTTAGMQWVQKMPGKGFKWIGWINTHSGEPKYAEDFKGRFAFSLETSASTAYLQISNLKNEDTATYFCARYGDYYYFDCWGQGTTLTVSS
VL: DIQMTQSPASLSASVGETVTITCRASGNIHNYLAWYQQKQGKSPQLLVYNAKTLADGVPSRFSGSGSGTQYSLKINSLQPEDFGSFYCQHFWTTPWSFGGGTKLEIK
B4: 6-N1-A (antibody, V domains shown)
VH: EVQLQQSGPELVKPGASVKISCKASGYTFTDYYMNWVQQSHGKSLEWIGDINPNNGGIRYNQNFKGKATLTVEKSSSTAYMELRSLTSEDSAVYYCARRQVFYDGYYDYAMDYWGQGTSVTVSS
VL: DIVLTQSPASLAVSLGQRATISCRASQSVSTSSYSYMHWYQQKPGQPPKLLIKYASNLESGVPARFSGSGSGTDFTLNIHPVEEEDTATYFCQHNWEIPPTFGGGTKLEIK
B5: 2-B20-A (antibody, V domains shown)
VH: QIQLVQSGPELKKPGETVKISCKASGYTFTTYGMSWVKQAPGKGLKWMGWINTFSGLPTYADDFNGRFAFSLETSASTAYLQINNLKDEDTATYFCARVKVHDYDGDFYGMDYWGQGTSVTVSS
VL: DVVLTQTPLSLPVNIGDQASISCKSTKSLLNSDGFTYLDWYLQKPGQSPQLLIYLVSNRFSGVPDRFSGSGSGTDFTLKISRVEAEDLGVYYCFQSNYLPLTFGAGTKLELK
B6: 10-J24-A (antibody, V domains shown)
VH: EVQLVESGGGLVKPGGSLKLSCAASGFTFSSYAMSWVRQNPAKRLEWVATISGGGGFTYYPDSVKGRFTISRDNAKNTLYLQMNSLRSEDTAMYYCARDEDGKHDYFDYWGQGTTLTVSS
VL: DIVMTQSHKFMSTSVGDRVSITCKASQDVGTAVAWYQQKPGQSPKLLIYWASTRHTGVPDRFTGSGSGTDFTLTISNVQSEDLADYFCQQYASYPLTFGGGTKLVIK
B7: 4-C22-A (antibody, V domains shown)
VH: EVQLVESGGDLVKPGGSLKLSCAASGFTFSSFGMSWVRQTPDKRLEWVATISSGGGFTYYPDSVEGRFTISRDNAKNTLYLQMSSLKSEDTAMYYCARRLYDYDWFAYWGQGTLVTVSA
VL: DIVMTQSHKIMSTSVGDRVSITCKASQDVVTAVAWYQKKPGQSPKLLIHWASTRHTGVPDRFTGSGSGTDFTLTISNVQSEDLADYFCQQYSSYPLTFGAGTKLELK
B8: 2-O15-A (antibody, V domains shown)
VH: QVQLQQSGAELVRPGASVKLSCKASGYTFTDCEMHWVKQTPVHGLEWIGVIDPETGDTAYNQKFKGKATLTADKSSSTAYMELRSLTSEDSAVYYCTRRRDYGNPYWYFDVWGAGTTVTVSS
VL: EIVLTQSPALMAASPGEKVTITCSVSSSISSSNLHWYQQKSGTSPKPWIYGTSNLASGVPVRFSGSGSGTSYSLTISSMEAEDAATYYCQQWTSYPYTFGSGTKLEIK

In this assay the target is SARS-CoV-2 Beta (B.1.351) variant prefusion stabilized spike trimer protein (UniProt P0DTC2 14-1213). Put plainly: ELISA. (In an ELISA, binding on a coated surface is turned into a signal by an enzyme label.)
B1 displayed a concentration for a half-maximal effect (EC50) of 5.97 nM.
Take B2: the half-maximal effective concentration (EC50) turned out to be 0.47 nM.
To B3 belongs 1.53 nM; to B4, 5.29 nM; to B5, 0.23 nM.
B6 registered an EC50 of 1.47 nM.
The molecule B7 had an EC50 of 0.53 nM.
B8 had a 50% effective concentration (EC50) of 0.59 nM.
